These results are taken from the nanobody polyreactivity screen of Harvey et al. (2022).

This series in a line: yeast display, Sf9 membrane polyspecificity reagent, FACS + sequencing; frameworks hold sequencing errors. The gist of the method: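 Galactose induction of a Saccharomyces cerevisiae BJ5465 synthetic nanobody display library ran 36–48 hours. The cells were then stained for 1 hour at 4 °C with 10% biotinylated, detergent-solubilized Sf9 membrane reagent, pulled down on streptavidin microbeads and FACS-sorted into low and high (top ~1%) gates on expression and reagent-binding fluorescence. Labels for polyreactivity follow the gate of origin.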
For “AVQLVESGGGLVQAGGSLRLSCAASGSIFPWYTMGWYRQAPGKERELVASITKSGARTYYADSVKGRFTISRDNAKNTVYLQMNSLKPEDTAVYYCAAVYPVWKYHYAYWGQGTQVTVSS”, the “polyreactivity (PSR sort gate)” value was “high polyreactivity”.

Regarding “EDELVESGGGIVQAGGSLRLSCAATGSIIVVNAMVWYRQAPRKERELVAAISRGGITNYADSVKGRFTISRDNAKNTVYLQMNSLKPEDTAVYYCNARGSRWVKPERDYWGQGTQVTVSS”, the “polyreactivity (PSR sort gate)” value is “low polyreactivity”.

As for “EEELVESGGGLVQAGGSLRLSCAASGRTFARNAMGWYRQAPGKERELVAGINFSGGNTYYADSVKGRFTISRDNAKNTVYLQMNSLKPEDTEVYYCAPRRYWEGDYWGQGTQVTVSS”, the “polyreactivity (PSR sort gate)” value is “low polyreactivity”.

On to “EEELVESGGGLVQAGGSLRLSCAASGRTYPNTMGWYRQAPGKERELVAAITTSGTSTRYADSVKGRFTISRDNAKNTVYLQMNSLKPEDTAVYYCATRYSGKTYHYNYWGQGTQVTVSS”, for which the “polyreactivity (PSR sort gate)” value is recorded as “high polyreactivity”.

In the case of “EEELVESGGGLVQAGGSLRLSCAASGSTFLVYAMGWYRQAPGKERELVAVITYSTVRTYYADSVKGRFTISRDNAKNTVYLQMNSLKPEDTAVYYCNADKEYAVLGQGMDYWGQGTQVSVSS”, the “polyreactivity (PSR sort gate)” value is reported as “low polyreactivity”.

“EEELVESGGGLVQAGGSLSLICAASGLTFYIYAMGWYRPAPGKERELVAAITTSGDSTYYADSVKGRFTISRDNAKNTVYLLLNSLKPEDTAVYYGAAAVWHYGRPGYLDSGYDYWGQGTQVSVSS”: the “polyreactivity (PSR sort gate)” value is on record as “low polyreactivity”.

On to “EVHLVESGGCLVQPRGSLRLSCAASGYNYIRYRMGSYRQAPGKVREFVAAISGGSSTNYADSVKGRFTISRDNSKNTVYLQMNSLRAEDTAVYYCAAYKIDSDPRVYWGQGTQVTVSS”, for which the “polyreactivity (PSR sort gate)” value is listed as “low polyreactivity”.

With “EVQLQESGGGLVQAGGSLRLSCAASGYTYNEYVMGWYRQATGKERELVAAISGSGGSTYYADSVKGRFTISRDNAKNTVYLQMNSLKPEDTAVYYCAARGYNSRGYDMDYWGQGTQVTVSS”, the “polyreactivity (PSR sort gate)” value was “high polyreactivity”.

With “EVQLVESGGGLVQPGGSLRLSCEASGYIYSRYRMGWYRQAPGKAREFVAAISGGSSTNYADSVKGRFTISRDNSKNTVYLQMNSLRAEDTAVYYCAAYKIDSDPRVYWGQGTQVTVSS”, the “polyreactivity (PSR sort gate)” value is “low polyreactivity”.

As for “GSTIYADSVKGRFTISRDNAKNTVYLQMNSLKPEDTAVYYCNKDDRNDRTIPGYDPEYDYWGQGTQVTVSS”, the “polyreactivity (PSR sort gate)” value is recorded as “low polyreactivity”.

As to “HAQLQESGGGLVQAGGSLRRSCAASGSIFRFSGMGWYRRAPGKERELVASIGFGSITYYADRVKGRFTISRDHANNTVYLQMNSLKPEDTAVYYCAVQVQDESWLDYWGQGTQVTVSC”, the “polyreactivity (PSR sort gate)” value was “low polyreactivity”.

For “HDQLVESGGGFVQAGGSLRLICAASGSTFIGYAMGWYRQAPGKERELVADISWSGGRTYYADSVKGRFTISRDNEKNTVYLQMNSLKPEDTAVYYCAARGSGHTRSYYWGQGTQVTVSS”, the “polyreactivity (PSR sort gate)” value is on record as “high polyreactivity”.

With “HDQLVESGGGLVQAGGSLRLTCAASGFIFGAYTMGWYRQAPGKERELVAAISWSGDSTYYADSVKGRFTISRDNAKNTVYLQMNSLKPEDTAVYYCAAVWYWSGFDYWGQGTQVTVSS”, the “polyreactivity (PSR sort gate)” value is recorded as “high polyreactivity”.

With “HEHLQESRGGLVQAGGSLRLSCAASGSIFQATYMGWYRQAPRKEREFVASITYGSITNYADSVKGRFTIGRDNATDTLYLQMNSLKQEDTAVYYWAVDRHYIPAFHYWGQGTQVTVSS”, the “polyreactivity (PSR sort gate)” value is on record as “low polyreactivity”.

Consider “HFQLVESGGGIVQAGGSLRLSCAASGRTCFYNAMGWYRQAPGKERELVAAISWSGGSTYYADSVKGRFTISRDNAKNPVSLQMNSLNREDTAVYYCNAAYGRRYDYWGQGTQVTVSS”, for which the “polyreactivity (PSR sort gate)” value was “high polyreactivity”.

“HGQLVESGGGLVQAGGSLRLSCAASGVTFSYYAMGWYRQGPGKDRELVAAITSSAGSTYYADSVKGRFTISRDNAKNTVYLQMNSLKPEDSALYYCNAVYSKLNGGYDYWGQGTQVTVSS”: the “polyreactivity (PSR sort gate)” value was “low polyreactivity”.

Take “HLQLVESGGGLVQAGGSLRLSCAPSGRILRDYDMGWYRQAPGKERELVAAINWSDGSTYYADSVKGRFTISRDNAKNTVYLQMNSLKPDDTAVFYCAASRWRPLERGTSWLHDYWGQGTQVTVSS”: the “polyreactivity (PSR sort gate)” value is listed as “low polyreactivity”.

Regarding “HVPLVESGGGLVQAGGSLRLSCAASGSIFVWYVMGWYRQAPGKEWELVAAITWSAARTYYADSVKGRFTISRDNAKITVYLQMNSLKPEDTAVYYGAADPVSYQPSSRIFDYWGQATQVTVSS”, the “polyreactivity (PSR sort gate)” value is “low polyreactivity”.

In the case of “HVQHVESAVGLVQAGGRLRLSCAASGIIFRGNVMGWYIPAPGKERELVAAISGSGGRTYYADSVKGRFTISRDNAKNTVYLLMNSLKPEDTAVYYCAVSGTRTIWGISYRMYYWGQGTQVTVSS”, the “polyreactivity (PSR sort gate)” value is “high polyreactivity”.

For the sequence “HVQLEESGGGEVQAGGSLRLTCAASGLIYTTYAMGWYRPAPGTERELVAAISRRGSRTYYADSVKGRFTISRDNAKNTVYLQMNSLNPEDTAVYYCNALTGSFKTDSFDYWGQGTQVTVSS”, the “polyreactivity (PSR sort gate)” value was “high polyreactivity”.

Turning to “HVQLGESGGGLVQAGGSLRLSCAASGRNFERNVMGWYRPATGKERELVAGIRSDGDRTYYADSVKGRFTISRDNSKNTVYLQLKSLKPEDTAVYYCAVVWYDKGRQTRYNYWGQGTQVTVSS”, the “polyreactivity (PSR sort gate)” value is “high polyreactivity”.

Turning to “HVQLKESGGGLVQAGGSLRLSCAASGSIFKVVDMGLYRKAPAKEREFVANIGEGCNTYYADSVKGRFTISRDNAKNTVYLQMNSLKPEDTAVYFYAFVLGTSYRYTYWGQGTLVTVSS”, the “polyreactivity (PSR sort gate)” value is recorded as “low polyreactivity”.

In the case of “HVQLLESGGGLLQAGGSLRLSCMASGSILRDRMSWYLQAPGKEHELVATIYDGGITYYADSMKGRFTISRDNAKNTVYLQMNSLRPEDTAVYYCGASFEGYRYHVYCGQGTQVTVSS”, the “polyreactivity (PSR sort gate)” value is listed as “low polyreactivity”.

As to “HVQLQERAAWCRRAGSLRQSCAASGNISHYYFMGWYRQAPGKERELVAAIAPGSNTYYADSVKGRFTISRDNAKNTVYLQMNSLKPEDTAVCFCAANSTQYTWFDYWGQGTQVPVSS”, the “polyreactivity (PSR sort gate)” value was “low polyreactivity”.

With “HVQLQESAGGLVQAGGSLRLSCAASGNISYSRNMGWYRQAPGKERELVAAIDRGAITYYADSVKGRFTISRDNATNTVYLQIYSLKPEDTAVYYCAAEYHDRWDHRYWGQGTHVTVSS”, the “polyreactivity (PSR sort gate)” value is on record as “high polyreactivity”.

For the sequence “HVQLQESGGGLEQAGGSLRLSCAASGYISDIGTMGWYRQAPGKEREFVANIVVGSTTNYADSVKGRFTISRDNAKNTVYLQPESGRYRGVLLRGWLLAVGKFTYWGQGTQETVSS”, the “polyreactivity (PSR sort gate)” value is “low polyreactivity”.

“HVQLQESGGGLVQAGGSLRLSCAASGYISHADEMGWYRQAPGKEHELVASISNGGSTNYADSVKGRFTISRDNAKNTVYLQMNSLKSEVTAVYYCAAWTGQVDFHYYWGQGTQVSVSS”: the “polyreactivity (PSR sort gate)” value was “low polyreactivity”.

Take “HVQLQESGGGLVQAGGSLRLSCGASGNISYSRSMGCYRQAPGKERELVAAIDRGAITYYADSVKGRFTISRDNAKNTVYLQIYSLKPEDTAVYYCAAVYHDRWDHRYWGQGTQVTVCS”: the “polyreactivity (PSR sort gate)” value is recorded as “high polyreactivity”.

On to “HVQLQESGGGLVQARGSLRLSCAATGSIFYRLKMGWHRQAPGKERELVATIDPGSNTYYADSVKGSFTISRDNAKKTVYPQMYSLKPEDTAVYYCAVSAHWTIHYYYWGEGTQVTVSS”, for which the “polyreactivity (PSR sort gate)” value was “high polyreactivity”.

In the case of “HVQLVDSGGGLVQAGGSLRLSCAASGSIFRYYTMGWYRQAPGKERELVAAISWSGGRTYYAHSVKGRFTISRDKAKNTVYLQMNSLKPEDTAVYYCAAVRPYYYPLPTVPNLPYDYWGQGTQVTVSS”, the “polyreactivity (PSR sort gate)” value is recorded as “high polyreactivity”.

On to “HVQLVEAGGGLVQAGGSLRLSCAASGSTLQYYAMGWYRQAPGKERELVAAITSTGSRTYYADSVKGRFTISRDNAKNTVYLLMNSLKPADTAVYYCAADIYDGEYDYWGQGTQVTVSS”, for which the “polyreactivity (PSR sort gate)” value is listed as “high polyreactivity”.

Take “HVQLVESAGGLFQEGGSLRVSCAASGGTLNTYAMGRYRQAPGKDREFVSAITTSGASTYYADSVKGRFTISRDNAKNTVYLQMNSLKPEDSAVYYCYCDYWGQGTQVTVSS”: the “polyreactivity (PSR sort gate)” value is given as “low polyreactivity”.

Consider “HVQLVESAGGLVQAGGSLRLSCAASGSILPRYAKGWYRQAPGKERELVAAISWSGGNTYYADSVKGRFTISRDNAKNTVYFQMNSLTPEDTAVSYSAARQYDWVIQGSRVRPVHYDYWGQGTQVNVSS”, for which the “polyreactivity (PSR sort gate)” value is listed as “high polyreactivity”.

Regarding “HVQLVESGAGLVQAGGSLRLSCAASGSTLRYYAMGWYRQAPGKERELVAAISTVGSTYYADSVKCRFTISRDNAKNTVNLQMNILKPEDTAVYYCAAEPWANTPGDAGSPFDYWGQGTQVTVSS”, the “polyreactivity (PSR sort gate)” value is listed as “low polyreactivity”.

Consider “HVQLVESGGCLFQAGGSLRLSCAASGRIFPGYAMGWYRQAPGKERELFAAINTSGGRTYYADSVKGRFTISGENAKNTVYLQMNSLKPEDTAVSYCAAVYRSRYDYWGQGTQVTVSS”, for which the “polyreactivity (PSR sort gate)” value is on record as “high polyreactivity”.

As to “HVQLVESGGGLFQAGGRLRVSCAASGNTIWGNAMGGSRQAPGKEREVVAAITGGGDTNYADSVKGRFTISRDNAKNTVYLQMNSLKPEDTAVYYCAADSSEWLLKDDYWGQGTQVTVSS”, the “polyreactivity (PSR sort gate)” value is reported as “low polyreactivity”.

In the case of “HVQLVESGGGLVQAGGRLRLSCAASGRNFVENAIGWYRQAPGKEWEFVAAISGGGSTDYADSVKGRFTISRDNAKNTVYLQMNSLKPEDTAVYYCNARQVFTTAGREMDYWGQGTQVTVSS”, the “polyreactivity (PSR sort gate)” value was “low polyreactivity”.

For “HVQLVESGGGLVQAGGSHRLICASSGFTIYYAIAWYRQAPGKESELVASISANGGSTYYADSVKGRFTISRDNAKNTVYLQMNSLKPEDTAVYYCAARGLSGQRRYYWGQGTQVTVSS”, the “polyreactivity (PSR sort gate)” value is “high polyreactivity”.

Consider “HVQLVESGGGLVQAGGSLRIICAASVRIFYLYAMGWYRRAPGKERELVATINSGGSTKYADSVKGRFTISRDNAKNSVYLQRNSLKPEDTAVYYCNAKRWKDYYPYQSWKYGYWGQGTQVTVSS”, for which the “polyreactivity (PSR sort gate)” value was “high polyreactivity”.

On to “HVQLVESGGGLVQAGGSLRISCAASGRTFYSYVMGWYRQAPGKQRQLVAAISSGGGRTYYADSVKGRFTISRDNAKHTVYLQMNSLKPEDTAVYYCNAVTRGTRWGLPYEYWGQGTQVTVSS”, for which the “polyreactivity (PSR sort gate)” value was “high polyreactivity”.

As to “HVQLVESGGGLVQAGGSLRLICAASVRIFADNAMGWYRQAPGKERELSAAISESGGSTYYADSVKGRFTISRDNAKNTVYLEMNSLKPEDTAVYYCAATAEVHRAEPYDYWGQGTQVTVSS”, the “polyreactivity (PSR sort gate)” value is recorded as “low polyreactivity”.
